Results on one substance are retold here after patent publication US6001604.

The assay deals with SOD-proinsulin hybrid polypeptide expressed by plasmid pBAST-R (SOD-Insulin B chain-Lys-Arg-Insulin A chain hybrid polypeptide) (human).

As to trypsin (Sigma) (enzyme), the human insulin generation after enzymatic cleavage (radioimmunoassay and RP-HPLC) (% of the theoretical yield) came out at 80.
